Four substances from PMC3082930 can be followed below.

The target of experiment [1] is GFP-Kv2.1-K470Q (rat). The experiment is described as follows: TIRF single-particle photobleaching step counting.
Experiment [2] deals with Gln-Lys-Lys-Gln tetrameric Kv2.1 construct (rat). The experiment can be described thus: TIRF single-particle photobleaching step counting.
Experiment [3] has as its target Gln-Lys-Gln-Gln tetrameric Kv2.1 construct (rat). The experiment is described as follows: TIRF single-particle photobleaching step counting.
Experiment [4] has as its target Lys-Gln-Gln-Gln tetrameric Kv2.1 construct (rat). The experiment can be described thus: TIRF single-particle photobleaching step counting.
Experiment [5] concerns the target CFP-Kv2.1-K470Q (rat). The experiment is described as follows: FRET or BRET.
Experiment [6] concerns the target CFP-Kv2.1 (rat) (UniProt P15387). The experiment can be described thus: FRET or BRET.

On to GFP-Kv2.1-K470Q (natural protein), for which the stoichiometry N in experiment [1] was found to be 4.

As to “GFP-SUMO1_(101) (from UniProt P63165 1-101) (natural protein)”, the stoichiometry N in experiment [2], in experiment [3] and in experiment [4] was 1 throughout.

For YFP-Kv2.1-K470Q (natural protein), the CFP donor photobleaching decay time constant (tau) in experiment [5] amounted to 26.2 s.

Take “YFP-Ubc9 (from UniProt P63279 1-158) (enzyme)”: the CFP donor photobleaching decay time constant (tau) in experiment [6] turned out to be 23.2 s.

The term stoichiometry N denotes a count of units in the complex or per binding partner.
